The source of these data is patent publication US20230272413A1 (UNITED STATES OF AMERICA AS REPRESENTED BY THE SECRETARY OF …, published 2023).

This series deals with the molecule itself. The experiment in a line: SEC-MALS, homodimer. On the technique in general: Size exclusion chromatography separates by hydrodynamic size, large species first.

B1: PLRV ^NRTD (other)
chain: KHERFIAYVGIPMLTIQARENDDQIILGSLGSQRMKYIEDENQNYTNISSEYYSQSSMQAVPMYYFNVPKGQWSVDISCEGYQPTSSTSDPHRGRSDGMIAYSNADSDYWNVGEADGVKISKLRNDNTYRQGHPELEINSCHFREGQLLERDATISFHVEAPTDGRFFLVGPAIQKTAKYNYTISYGDWTDRDMELGLITVVLDEHLEGTGSANRVRRPPREGHIYMAS
notes: Selenomethionine-labeled protein was used for phasing; also called Potato leafroll virus ^NRTD; WT PLRV ^NRTD
With B1, the binding result is reported as “binds”.
